# According to PMC9290910, “Neuropilin‐1 is required for endothelial cell adhesion to soluble vascular endothelial growth factor receptor 1” (The Febs Journal, 2021):
# T1: Recombinant human NRP‐1 (human, UniProt O14786 22-856)
# T1 construct: Neuropilin-1, human, recombinant soluble protein; see the vendor's datasheet (as far as I recall an extracellular fragment with a C-terminal His tag); also called Neuropilin‐1; soluble NRP‐1; source: bought: R&D Systems (3870‐N1)
# T1 sequence (looked up): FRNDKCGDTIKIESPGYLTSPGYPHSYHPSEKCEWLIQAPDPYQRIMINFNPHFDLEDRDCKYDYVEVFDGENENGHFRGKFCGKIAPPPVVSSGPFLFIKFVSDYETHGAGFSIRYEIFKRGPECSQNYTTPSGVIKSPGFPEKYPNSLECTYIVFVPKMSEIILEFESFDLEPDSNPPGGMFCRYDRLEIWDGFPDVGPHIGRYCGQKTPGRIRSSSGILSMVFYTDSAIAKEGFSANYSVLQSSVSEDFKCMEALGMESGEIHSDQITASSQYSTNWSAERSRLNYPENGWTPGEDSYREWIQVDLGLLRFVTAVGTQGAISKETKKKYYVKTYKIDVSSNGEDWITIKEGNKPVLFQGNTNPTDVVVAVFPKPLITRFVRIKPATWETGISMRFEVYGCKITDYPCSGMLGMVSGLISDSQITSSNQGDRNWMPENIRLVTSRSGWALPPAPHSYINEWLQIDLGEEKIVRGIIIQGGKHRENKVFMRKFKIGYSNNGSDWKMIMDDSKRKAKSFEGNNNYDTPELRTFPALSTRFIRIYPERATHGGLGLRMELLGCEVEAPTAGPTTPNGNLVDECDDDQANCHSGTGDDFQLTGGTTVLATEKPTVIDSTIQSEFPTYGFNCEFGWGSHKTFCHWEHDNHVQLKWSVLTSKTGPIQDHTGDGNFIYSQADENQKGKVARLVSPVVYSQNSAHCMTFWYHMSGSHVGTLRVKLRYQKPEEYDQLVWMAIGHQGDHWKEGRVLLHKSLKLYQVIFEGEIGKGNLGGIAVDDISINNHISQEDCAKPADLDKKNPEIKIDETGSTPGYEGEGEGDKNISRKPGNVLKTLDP
# Experiments:
# sVEGFR‐1 = assay: SPR, α5β1 integrin binding to immobilized sVEGFR‐1; design: species or system human; settings: sVEGFR‐1 immobilized, α5β1 integrin 80 nM-1 μM
# Description: Fig. 7 sVEGFR‐1/α5β1 integrin interaction. (A) SPR analysis of the interaction between sVEGFR‐1 and α5β1 integrin. sVEGFR‐1 is immobilized on sensor chips and α5β1 integrin is injected at different concentrations (from bottom to top: 80 nM, cyan; 160 nM, red; 350 nM, green; 600 nM, blue; and 1 μM, black). […] (B) Secondary structure representation of the 3D structure of VEGFR‐1 Ig‐like domain II. β‐strands are represented by arrows and labelled from A to H; loops are shown as tubular ribbons; the N‐ and C‐terminal ends of the domain are indicated by labels. Colour coding: peptide 12 (interacting with α5β1 integrin) is blue; Flt2‐11 peptide (interacting with NRP‐1) is yellow in the five‐residue NITVT region corresponding to the Flt2‐5 peptide (see text), and green in the remaining six‐residues region; the rest of the domain is magenta. (C) Proposed mechanism of action of Flt2‐11 peptide. Left: Light blue arrows indicate the high‐affinity interactions: (i) between NRP‐1 (yellow) and α5β1 integrin (black) on the EC membrane; and (ii) between NRP‐1 on the EC membrane and the sVEGFR‐1 substrate (green). The dark blue arrow indicates the low‐affinity interaction between α5β1 integrin on the EC membrane and the sVEGFR‐1 substrate. The low‐affinity interaction is stabilized by the two high‐affinity interactions, and the angiogenic stimulus is triggered. Centre: The Flt2‐11 peptide inhibits the high‐affinity interaction between NRP‐1 on the EC membrane and the sVEGFR‐1 substrate. The low‐affinity interaction between α5β1 integrin on ECs and the sVEGFR‐1 substrate is not sufficiently stable to trigger the angiogenic stimulus that starts upon integrin engagement. […]
# (§1) SPR experiments were carried out using a BIACORE X system (Biacore AB, Uppsala, Sweden). […] The reaction was carried out in 20 mM sodium acetate at pH 5.0, which is about 2 points below the theoretical NRP‐1 isoelectric point calculated using the program pI‐tool. […]
# NRP‐1 [1] = assay: SPR, α5β1 integrin binding to immobilized NRP‐1; design: species or system human; settings: NRP‐1 immobilized, α5β1 integrin 20-500 nM
# Description: SPR analysis of NRP‐1 interaction with α5β1 integrin or semaphorin 3A, in the absence or presence of Flt2‐11 peptide or ‘scrambled’ Flt2‐11. NRP‐1 is immobilized on sensor chip. (A) α5β1 integrin is injected at different concentrations (from bottom to top: 20 nM, cyan; 40 nM, red; 100 nM, green; 200 nM, blue; and 500 nM, black). […] (B) α5β1 integrin is injected at 200 nM concentration together with either Flt2‐11 peptide or scrambled Flt2‐11 peptide at different concentrations (no peptides, black; Flt2‐11 peptide […] and 20 μM, blue and cyan, respectively; scrambled Flt2‐11 peptide at 2 μM and 20 μM, red and purple, respectively). (C) Semaphorin 3A is injected at different concentrations (from bottom to top: 20 nM, cyan; 30 nM, red; 50 nM, green; 200 nM, blue; and 500 nM, black). […] (D) Semaphorin 3A is injected at 200 nM, and peptide Flt2‐11 at different concentrations (no peptides, black; Flt2‐11 peptide 1 μM and 10 μM blue and cyan, respectively; scrambled Flt2‐11 peptide 50 μM, red).
# as §1
# RU express the mass concentration‐dependent changes in the observed SPR signal, that is, the refractive index on the sensor chip surface. Changes in this signal are determined by the interaction between the immobilized protein (i.e., either NRP‐1 or VEGFR‐1) with the analyte protein (i.e., VEGFR‐1/Fc, α5β1 integrin or semaphorin 3A). […] Global fitting analyses of association and dissociation data for all ligand concentrations were carried out using BIAEVALUATION software 3.0 (Biacore, Uppsala, Sweden), which allows the ratio between association and dissociation constants (k on/k off) to be accurately determined. […]
# Purified α5β1 integrin = molecular target: T2, Purified α5β1 integrin (UniProt P08648 42-1049; P05556 21-728); assay: SPR; BIACORE X, CM5; VEGFR-1/Fc captured (about 200 RU) on amine-coupled protein A; α5β1 integrin injected; HEPES-buffered saline (10 mM HEPES pH 7.4, 150 mM NaCl, 0.005% P20); 1:1 Langmuir fit; settings: both partners purified
# T2 construct: integrin alpha-5 subunit; integrin beta-1 subunit; As far as I recall this product is purified from human tissue; also called integrin α5β1; source: bought: Merck Millipore (CC1052), purified, octyl‐β‐D‐glucopyranoside formulation
# T2 sequence (P08648 42-1049, chain 1 of 2): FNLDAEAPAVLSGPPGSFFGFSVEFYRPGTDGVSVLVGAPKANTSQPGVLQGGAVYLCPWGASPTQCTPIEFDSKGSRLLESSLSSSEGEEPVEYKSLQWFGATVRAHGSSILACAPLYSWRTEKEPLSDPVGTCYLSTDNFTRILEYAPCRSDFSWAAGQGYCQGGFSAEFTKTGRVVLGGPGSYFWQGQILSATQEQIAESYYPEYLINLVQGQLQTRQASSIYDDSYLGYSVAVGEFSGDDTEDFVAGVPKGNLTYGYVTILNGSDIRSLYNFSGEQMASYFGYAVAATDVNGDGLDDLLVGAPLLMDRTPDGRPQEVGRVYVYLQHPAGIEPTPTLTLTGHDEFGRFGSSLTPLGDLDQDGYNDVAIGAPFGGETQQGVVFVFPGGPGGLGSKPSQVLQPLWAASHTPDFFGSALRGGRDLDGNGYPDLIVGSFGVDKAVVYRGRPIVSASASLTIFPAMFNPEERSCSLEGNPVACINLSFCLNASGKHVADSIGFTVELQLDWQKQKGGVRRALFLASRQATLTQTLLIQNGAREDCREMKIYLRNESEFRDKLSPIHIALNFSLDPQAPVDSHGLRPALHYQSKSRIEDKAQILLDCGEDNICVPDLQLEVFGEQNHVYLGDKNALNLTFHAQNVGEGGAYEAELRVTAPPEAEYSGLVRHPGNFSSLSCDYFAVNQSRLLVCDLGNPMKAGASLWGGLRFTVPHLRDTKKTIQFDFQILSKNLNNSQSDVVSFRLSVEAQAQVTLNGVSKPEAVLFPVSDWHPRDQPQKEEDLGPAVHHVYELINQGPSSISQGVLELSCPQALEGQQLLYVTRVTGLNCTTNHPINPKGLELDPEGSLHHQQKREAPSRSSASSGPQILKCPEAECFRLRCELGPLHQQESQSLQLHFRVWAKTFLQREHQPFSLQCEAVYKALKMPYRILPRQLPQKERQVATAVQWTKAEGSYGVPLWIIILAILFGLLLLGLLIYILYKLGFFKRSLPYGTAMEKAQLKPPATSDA
# T2 sequence (P05556 21-728, chain 2 of 2): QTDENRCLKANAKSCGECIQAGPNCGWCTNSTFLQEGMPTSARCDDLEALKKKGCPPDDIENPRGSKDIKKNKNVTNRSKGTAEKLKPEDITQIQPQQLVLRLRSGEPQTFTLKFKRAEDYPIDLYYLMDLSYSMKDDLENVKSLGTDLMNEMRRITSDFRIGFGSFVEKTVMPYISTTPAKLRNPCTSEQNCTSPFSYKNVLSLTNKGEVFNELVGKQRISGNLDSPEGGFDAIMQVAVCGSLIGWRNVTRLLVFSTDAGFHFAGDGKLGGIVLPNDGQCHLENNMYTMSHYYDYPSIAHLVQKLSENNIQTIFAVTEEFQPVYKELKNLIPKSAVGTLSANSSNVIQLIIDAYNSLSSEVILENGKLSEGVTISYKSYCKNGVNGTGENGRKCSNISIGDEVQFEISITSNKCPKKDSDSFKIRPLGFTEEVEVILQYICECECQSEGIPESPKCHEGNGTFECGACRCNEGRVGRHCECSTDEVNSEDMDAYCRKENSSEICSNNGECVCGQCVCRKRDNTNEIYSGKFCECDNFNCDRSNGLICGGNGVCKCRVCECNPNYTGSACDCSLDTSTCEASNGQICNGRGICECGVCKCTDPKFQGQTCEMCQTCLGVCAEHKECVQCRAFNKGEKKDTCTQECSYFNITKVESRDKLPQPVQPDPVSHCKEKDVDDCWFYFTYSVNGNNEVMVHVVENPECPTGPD
# Recombinant human NRP‐1 = molecular target: T1, Recombinant human NRP‐1; assay: SPR; BIACORE X, CM5; NRP-1 immobilised by amine coupling; analyte in HEPES-buffered saline (10 mM HEPES pH 7.4, 150 mM NaCl, 0.005% P20); global 1:1 Langmuir fit; settings: both partners purified
# NRP‐1 [2] = assay: SPR, semaphorin 3A binding to immobilized NRP‐1; design: species or system human; settings: NRP‐1 immobilized, semaphorin 3A 20-500 nM
# Description: SPR analysis of NRP‐1 interaction with α5β1 integrin or semaphorin 3A, in the absence or presence of Flt2‐11 peptide or ‘scrambled’ Flt2‐11. NRP‐1 is immobilized on sensor chip. (A) α5β1 integrin is injected at different concentrations (from bottom to top: 20 nM, cyan; 40 nM, red; 100 nM, green; 200 nM, blue; and 500 nM, black). […] (B) α5β1 integrin is injected at 200 nM concentration together with either Flt2‐11 peptide or scrambled Flt2‐11 peptide at different concentrations (no peptides, black; Flt2‐11 peptide […] and 20 μM, blue and cyan, respectively; scrambled Flt2‐11 peptide at 2 μM and 20 μM, red and purple, respectively). (C) Semaphorin 3A is injected at different concentrations (from bottom to top: 20 nM, cyan; 30 nM, red; 50 nM, green; 200 nM, blue; and 500 nM, black). […]
# as §1
# RU express the mass concentration‐dependent changes in the observed SPR signal, that is, the refractive index on the sensor chip surface. Changes in this signal are determined by the interaction between the immobilized protein (i.e., either NRP‐1 or VEGFR‐1) with the analyte protein (i.e., VEGFR‐1/Fc, α5β1 integrin or semaphorin 3A). […]
Molecule,k off (sVEGFR‐1),k on (sVEGFR‐1),"Kd (sVEGFR‐1; read-out: K D, sVEGFR‐1/α5β1 integrin)",k off (NRP‐1 [1]),k on (NRP‐1 [1]),"Kd (NRP‐1 [1]; read-out: K D, NRP‐1/α5β1 integrin)",Kd (Purified α5β1 integrin),koff (Purified α5β1 integrin),kon (Purified α5β1 integrin),Kd (Recombinant human NRP‐1),koff (Recombinant human NRP‐1),kon (Recombinant human NRP‐1),k off (NRP‐1 [2]),k on (NRP‐1 [2])
"α5β1 integrin: Purified α5β1 integrin (CC1052), Merck Millipore",0.00029 s⁻¹,1500 M⁻¹ s⁻¹,195 ± 40 nM,0.00029 s⁻¹,21000 M⁻¹ s⁻¹,14 ± 4 nM,,,,,,,,
"Recombinant human VEGFR‐1/Fc (Fc fusion, UniProt P17948 27-758, looked up, VEGFR-1 (Flt-1), human, recombinant Fc chimera; also called sVEGFR‐1; sVEGFR‐1/Fc; source: bought: R&D Systems (321‐FL‐050)) SKLKDPELSLKGTQHIMQAGQTLHLQCRGEAAHKWSLPEMVSKESERLSITKSACGRNGKQFCSTLTLNTAQANHTGFYSCKYLAVPTSKKKETESAIYIFISDTGRPFVEMYSEIPEIIHMTEGRELVIPCRVTSPNITVTLKKFPLDTLIPDGKRIIWDSRKGFIISNATYKEIGLLTCEATVNGHLYKTNYLTHRQTNTIIDVQISTPRPVKLLRGHTLVLNCTATTPLNTRVQMTWSYPDEKNKRASVRRRIDQSNSHANIFYSVLTIDKMQNKDKGLYTCRVRSGPSFKSVNTSVHIYDKAFITVKHRKQQVLETVAGKRSYRLSMKVKAFPSPEVVWLKDGLPATEKSARYLTRGYSLIIKDVTEEDAGNYTILLSIKQSNVFKNLTATLIVNVKPQIYEKAVSSFPDPALYPLGSRQILTCTAYGIPQPTIKWFWHPCNHNHSEARCDFCSNNEESFILDADSNMGNRIESITQRMAIIEGKNKMASTLVVADSRISGIYICIASNKVGTVGRNISFYITDVPNGFHVNLEKMPTEGEDLKLSCTVNKFLYRDVTWILLRTVNNRTMHYSISKQKMAITKEHSITLNLTIMNVSLQDSGTYACRARNVYTGEEILQKKEITIRDQEAPYLLRNLSDHTVAISSSTTLDCHANGVPEPQITWFKNNHKIQQEPGIILGPGSSTLFIERVTEEDEGVYHCKATNQKGSVESSAYLTVQGTSDKSNLE",,,,,,,195 ± 40 nM,0.00029 s⁻¹,1500 M⁻¹ s⁻¹,25 ± 4 nM,0.0003 s⁻¹,12000 M⁻¹ s⁻¹,,
semaphorin 3A (ligand) NYQNGKNNVPRLKLSYKEMLESNNVITFNGLANSSSYHTFLLDEERSRLYVGAKDHIFSFDLVNIKDFQKIVWPVSYTRRDECKWAGKDILKECANFIKVLKAYNQTHLYACGTGAFHPICTYIEIGHHPEDNIFKLENSHFENGRGKSPYDPKLLTASLLIDGELYSGTAADFMGRDFAIFRTLGHHHPIRTEQHDSRWLNDPKFISAHLISESDNPEDDKVYFFFRENAIDGEHSGKATHARIGQICKNDFGGHRSLVNKWTTFLKARLICSVPGPNGIDTHFDELQDVFLMNFKDPKNPVVYGVFTTSSNIFKGSAVCMYSMSDVRRVFLGPYAHRDGPNYQWVPYQGRVPYPRPGTCPSKTFGGFDSTKDLPDDVITFARSHPAMYNPVFPMNNRPIVIKTDVNYQFTQIVVDRVDAEDGQYDVMFIGTDVGTVLKVVSIPKETWYDLEEVLLEEMTVFREPTAISAMELSTKQQQLYIGSTAGVAQLPLHRCDIYGKACAECCLARDPYCAWDGSACSRYFPTAKRRTRRQDIRNGDPLTHCSDLHHDNHHGHSPEERIIYGVENSSTFLECSPKSQRALVYWQFQRRNEERKEEIRVDDHIIRTDQGLLLRSLQQKDSGNYLCHAVEHGFIQTLLKVTLEVIDTEHLEELLHKDDDGDGSKTKEMSNSMTPSQKVWYRDFMQLINHPNLNTMDEFCEQVWKRDRKQRRQRPGHTPGNSNKWKHLQENKKGRNRRTHEFERAPRSV,,,,,,,,,,24 ± 6 nM,9e-05 s⁻¹,3700 M⁻¹ s⁻¹,9e-05 s⁻¹,3700 M⁻¹ s⁻¹
